One assay relates to human eosinophils. Format: cell-based. As for the experimental part: The functional activity of AF18748 was assessed in a human eosinophil adhesion assay (following the method of […], et al, Cytokine 8:248 (1996)). […] AF18748 is therefore a potent and selective antagonist of IL-5 in a human eosinophil functional assay.
Assay [1] concerns the target T1, IL-5Rα ECD (Homo sapiens, UniProt Q01344).
T1 sequence (Q01344 21-342 limits assumed): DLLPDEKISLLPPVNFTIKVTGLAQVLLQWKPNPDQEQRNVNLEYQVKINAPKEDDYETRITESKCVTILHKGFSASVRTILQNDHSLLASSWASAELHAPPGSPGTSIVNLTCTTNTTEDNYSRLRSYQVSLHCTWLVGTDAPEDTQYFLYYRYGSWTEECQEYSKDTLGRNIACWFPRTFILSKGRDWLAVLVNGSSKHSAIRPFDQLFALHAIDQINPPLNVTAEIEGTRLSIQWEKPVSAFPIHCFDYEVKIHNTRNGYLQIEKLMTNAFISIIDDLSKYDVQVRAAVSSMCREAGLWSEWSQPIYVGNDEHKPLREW
As to the kind of experiment: biochemical.
Description: Binding affinities of synthetic peptides for IL-5Rα were measured in a competition binding assay using radio-iodinated IL-5. Immulon 4 (Dynatech) microtiter wells were coated with streptavidin (Sigma) by incubating 100 μl of a 50 μg/ml solution in PBS for 30 min. at 37°. The wells were blocked with 200 μl of 1% BSA in PBS for 15 min. at 37°, followed by 100 μl of biotinylated monoclonal antibody, designated mAb 179, at 5 μg/ml in PBS. Soluble IL-5Rα was then immobilized in the wells by incubating 100 μl of a solution of soluble receptor harvest diluted 1:5000 in PBS/0.1% BSA for 1 hr. at 4°. After washing away unbound receptor, 50 μl of various concentrations of test peptide diluted in PBS/0.1% BSA were added to the wells, followed by 50 μl of a fixed concentration of [^125I] IL-5 (Amersham). The binding reactions were incubated at 4° C. for 2 hr, then washed with PBS to remove unbound [^125I] IL-5. Bound [^125I] IL-5 was determined by gamma counting. Total binding was defined by the amount of [^125I] IL-5 bound in the absence of any competitor. Non-specific binding was defined by the amount of [^125I] IL-5 bound in the presence of 30 nM IL-5. Peptide binding data was analyzed to determine the peptide concentration required to reduce specific [^125I] IL-5 binding by 50% (IC50).

Assay [2] has as its target T2, native IL-5R α/β complex on TF-1 cells (Homo sapiens, UniProt Q01344).
T2 construct: endogenous in cells; host or cells: TF-1 cells
T2 sequence (Q01344 21-420): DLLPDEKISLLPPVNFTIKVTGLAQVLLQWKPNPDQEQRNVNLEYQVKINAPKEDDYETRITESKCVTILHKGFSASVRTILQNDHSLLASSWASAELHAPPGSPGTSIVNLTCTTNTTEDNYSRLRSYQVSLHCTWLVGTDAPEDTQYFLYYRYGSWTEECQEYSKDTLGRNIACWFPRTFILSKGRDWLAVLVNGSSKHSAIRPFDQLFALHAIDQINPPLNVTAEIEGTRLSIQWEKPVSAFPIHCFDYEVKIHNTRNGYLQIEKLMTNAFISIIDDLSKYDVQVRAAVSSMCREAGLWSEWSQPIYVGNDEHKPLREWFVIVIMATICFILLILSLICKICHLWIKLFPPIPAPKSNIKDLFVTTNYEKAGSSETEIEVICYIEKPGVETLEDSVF
As to the kind of experiment: competition binding of [125I] IL-5 to TF-1 cells. The conditions noted are these: read-out: IC50, inhibition of binding of [125I] IL-5 to TF-1 cells. As for the experimental part:
The ability of AF18748 to bind to the native IL-5R α/β complex on TF-1 cells was assessed in a competition binding assay (as described in McKinnon et al., J. Exp. Med 186: 121 (1997)). The binding of [^125I]

A further assay addresses T3, human IL-5 receptor (Homo sapiens, UniProt Q01344).
T3 construct: host or cells: HL60 subclone induced towards eosinophil differentiation with sodium butyrate
T3 sequence (Q01344 21-420): T2 sequence (Q01344 21-420)
T3 sequence (P32927 17-897 partner): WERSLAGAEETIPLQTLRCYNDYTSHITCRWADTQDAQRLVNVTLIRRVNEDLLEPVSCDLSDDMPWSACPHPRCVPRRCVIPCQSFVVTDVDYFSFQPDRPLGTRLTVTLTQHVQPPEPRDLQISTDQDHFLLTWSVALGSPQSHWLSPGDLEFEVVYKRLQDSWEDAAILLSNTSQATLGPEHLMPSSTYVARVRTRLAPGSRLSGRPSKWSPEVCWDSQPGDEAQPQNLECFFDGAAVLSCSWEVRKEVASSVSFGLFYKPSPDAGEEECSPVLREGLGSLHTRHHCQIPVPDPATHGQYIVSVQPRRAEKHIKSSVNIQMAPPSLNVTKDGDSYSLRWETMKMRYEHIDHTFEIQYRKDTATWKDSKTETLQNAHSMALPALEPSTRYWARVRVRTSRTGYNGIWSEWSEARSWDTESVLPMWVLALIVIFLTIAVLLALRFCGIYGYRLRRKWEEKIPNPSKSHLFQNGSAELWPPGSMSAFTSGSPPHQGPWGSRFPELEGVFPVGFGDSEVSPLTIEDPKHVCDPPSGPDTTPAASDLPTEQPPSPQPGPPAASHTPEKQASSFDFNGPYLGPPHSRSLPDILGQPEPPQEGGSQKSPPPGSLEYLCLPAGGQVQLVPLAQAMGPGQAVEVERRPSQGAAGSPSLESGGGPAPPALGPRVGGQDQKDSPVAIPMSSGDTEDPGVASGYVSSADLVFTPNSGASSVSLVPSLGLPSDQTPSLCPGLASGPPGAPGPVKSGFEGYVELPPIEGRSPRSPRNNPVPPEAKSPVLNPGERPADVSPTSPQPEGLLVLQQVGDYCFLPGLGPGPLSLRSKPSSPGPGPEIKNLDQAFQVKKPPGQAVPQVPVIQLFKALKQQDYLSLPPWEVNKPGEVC
As to conditions: HL60 subclone, sodium butyrate induced; read-out: Kd of IL-5 binding sites; cited from earlier work.

Assay [3] concerns the target T4, chimeric IL-5Rα/EGFR receptor (Homo sapiens, UniProt P00533+Q01344).
T4 construct: A chimeric receptor consisting of the IL-5Rα ECD fused to the transmembrane spanning and intracellular domains; expressed in transfected cells; host or cells: Ba/F3 cells with c-fos enhancer/TK promoter luciferase reporter
As to the kind of experiment: chimeric IL-5Rα/EGFR luciferase reporter cell assay in Ba/F3 cells. Format: cell-based. As to conditions: for luciferase activity of Ba/F3 cells expressing the chimera: serial dilutions, 4 hr. An excerpt: A system comprising a chimeric IL-5R-α/EGFR reported cell assay was designed to analyze receptor binding stoichiometry in a cellular context. A chimeric receptor consisting of the IL-5Rα ECD fused to the transmembrane spanning and intracellular domains of the epidermal growth factor receptor (EGFR) was constructed, and stably expressed in Ba/F3 cells that also contained a luciferase reporter gene under the transcriptional control of the c-fos enhancer and minimal thymidine kinase promoter.
In the assay, Ba/F3 cells expressing a chimeric IL-5Rα/EGFR receptor and containing a luciferase reporter gene were starved overnight of the WEHI conditioned medium in which they were maintained, then seeded into microtiter wells at a density of 10^5 cells/well. Following stimulation, the cells were incubated for 4 hr at 37° in a 5% CO2 incubator. LucLite reagent (Packard) was then added to the wells according to the manufacturer's instructions and the plates were assayed for luciferase activity by counting in a Topcount instrument (Packard). Data points represent mean±SEM for 3 separate experiments performed in triplicate. The data has been normalized to the stimulation induced by 1 μM AF18748 in each experiment.

A further assay deals with IL-5RαECD (Homo sapiens, UniProt Q01344). The conditions noted are these: AF18748 over 10 pM to 1 nM; binding decreases above 1 nM.
For assay [4], the target named is T1, IL-5Rα ECD. Briefly: gel filtration chromatography of IL-5Rα ECD with peptide. On the set-up: IL-5RαECD=ECD of the human IL-5 receptor a chain. As for the experimental part:
Secondly, the ability of peptides to induce receptor dimerization was studied using gel filtration chromatography. Gel filtration chromatography was performed on a Pharmacia Smart system using a Precision Superdex 200 3.2/30 column at 25° C. with a flow rate of 10 μl/min. The buffer was 50 mM Tris pH 7.5, 0.5 M NaCl. The column was calibrated using the Biorad Gel filtration molecular weight standards which contain Thyroglobulin, 670 KD; Bovine gamma globulin, 158 KD; Chicken ovalbumin, 44 KD; Equine myoglobin, 17 KD; Vitamin B12, 1.35 KD. […] Results shown are from a single experiment, representative of three separate runs for each condition.
For orientation: SEC sorts molecules by how far they enter the pores of the column.

Setting [5] is: IL-5Rα ECD with equimolar peptide, Superdex 200.

Bridge positions count the residues as written; N and C are the ends. Ends that are not written are not given here. Peptide text beside a SMILES is read from it. I, II: the chains in the order shown.

T4 sequence (Q01344+P00533 fused, stated change not applied): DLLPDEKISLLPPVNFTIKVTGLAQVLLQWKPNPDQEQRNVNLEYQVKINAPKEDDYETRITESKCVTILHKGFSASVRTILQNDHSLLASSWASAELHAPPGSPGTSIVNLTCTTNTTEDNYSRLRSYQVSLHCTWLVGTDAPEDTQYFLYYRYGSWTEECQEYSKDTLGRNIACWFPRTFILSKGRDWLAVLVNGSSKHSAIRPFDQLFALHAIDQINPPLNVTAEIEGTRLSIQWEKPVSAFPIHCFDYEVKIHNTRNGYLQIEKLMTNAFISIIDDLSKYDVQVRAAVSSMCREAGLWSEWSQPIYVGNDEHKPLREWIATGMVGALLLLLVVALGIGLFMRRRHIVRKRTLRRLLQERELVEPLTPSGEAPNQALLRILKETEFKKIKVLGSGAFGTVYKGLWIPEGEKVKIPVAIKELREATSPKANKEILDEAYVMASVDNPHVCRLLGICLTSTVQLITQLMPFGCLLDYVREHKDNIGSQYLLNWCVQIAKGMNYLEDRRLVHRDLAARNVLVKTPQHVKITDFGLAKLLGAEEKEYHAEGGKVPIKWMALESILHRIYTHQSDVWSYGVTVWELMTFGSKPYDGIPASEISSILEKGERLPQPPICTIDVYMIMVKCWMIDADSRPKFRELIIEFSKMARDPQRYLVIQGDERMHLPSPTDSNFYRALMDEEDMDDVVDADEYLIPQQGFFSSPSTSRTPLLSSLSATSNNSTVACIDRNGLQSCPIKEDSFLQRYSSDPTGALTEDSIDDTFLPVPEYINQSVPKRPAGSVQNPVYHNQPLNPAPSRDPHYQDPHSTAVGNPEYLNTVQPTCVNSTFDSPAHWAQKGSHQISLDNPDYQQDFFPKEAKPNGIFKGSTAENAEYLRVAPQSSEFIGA
Description for IL-5RαECD: A “sandwich” binding assay using microvolume fluorimetry (Martens et al., Anal. Biochem., 273:20 (1999)) was used to measure the ligand dependent association of two receptor proteins. IL-5RαECD (the extracellular domain (ECD) of the human IL-5 receptor a chain) was immobilized onto 10 μm beads and incubated with soluble, fluorescently labeled IL-5Rα ECD in the presence or absence of IL-5 or peptide.
Fluorescently labeled mAb 179 was prepared using Cy5 monofunctional reactive dye (Amersham) according to the manufacturer's instructions. (As disclosed in Martens et al., supra, Cy5.5 dye is also suitable.) Fluorescent mAb179:IL-5Rα ECD complexes were formed by preincubating the labeled antibody with an equimolar amount of receptor ECD in phosphate buffered saline (PBS) for 1 hr at room temperature. Mono A 10 μm polystyrene beads (Pharmacia) were coated first with biotinylated bovine serum albumin, then sequentially with streptavidin, biotinylated mAb179, and IL-5Rα ECD. […]
The binding reactions were incubated in microtiter plates overnight at room temperature, then microvolume fluorimetry measurements of bead-associated fluorescence were made using an FMAT instrument (Perkin-Elmer).

In the case of `CC(C)[C@H](NC(=O)[C@H](CSSC[C@H](NC(=O)[C@@H](NC(=O)[C@H](Cc1ccc(O)cc1)NC(=O)CNC(=O)[C@H](CC(=O)O)NC(=O)CNC(=O)CNC(=O)CNC(=O)[C@@H](N)[C@@H](C)O)C(C)C)C(=O)N[C@H](C(=O)N[C@@H](CCC(=O)O)C(=O)N[C@@H](Cc1c[nH]c2ccccc12)C(=O)N[C@@H](C)C(=O)N[C@@H](CCCNC(=N)N)C(=O)N[C@H]1CSSC[C@@H](C(=O)N[C@@H](CCCCN)C(=O)O)NC(=O)[C@H]([C@@H](C)O)NC(=O)[C@@H]2CCCN2C1=O)C(C)C)NC(=O)[C@@H](NC(=O)[C@H](Cc1ccc(O)cc1)NC(=O)CNC(=O)[C@H](CC(=O)O)NC(=O)CNC(=O)CNC(=O)CNC(=O)[C@@H](N)[C@@H](C)O)C(C)C)C(=O)N[C@@H](CCC(=O)O)C(=O)N[C@@H](Cc1c[nH]c2ccccc12)C(=O)N[C@@H](C)C(=O)N[C@@H](CCCNC(=N)N)C(=O)N[C@H]1CSSC[C@@H](C(=O)N[C@@H](CCCCN)C(=O)O)NC(=O)[C@H]([C@@H](C)O)NC(=O)[C@@H]2CCCN2C1=O` [AF18748] (I: H-TGGGDGYVCVEWARCPTCK-OH / II: H-TGGGDGYVCVEWARCPTCK-OH; disulfide I:9-II:9, I:15-I:18, II:15-II:18), the IC50 amounted to 0.348 ± 0.067 nM in the assay on human eosinophils, 0.78 nM at IL-5Rα ECD [1] and 0.4 ± 0.04 nM in assay [2].
On to “IL-5: Interleukin 5, natural ligand, disulfide linked homodimer”, for which the Kd with human IL-5 receptor is 0.03 nM. Further, in assay [3], the “basal level of luciferase expression in unstimulated cells” value is recorded as “reduced basal level of luciferase expression” and the “luciferase activity of Ba/F3 cells expressing the chimera” value is recorded as “no effect”. For the same molecule, the “effect on activation of the luciferase reporter by AF18748” value in assay [3] (200 pM AF18748, increasing concentrations of IL-5) is on record as “antagonized”. In addition, in the assay with IL-5RαECD, the “association of fluorescently labeled IL-5Rα ECD to IL-5RαECD-coated beads” value is reported as “did not mediate receptor association”.
Take “VDECWRIIASHTWFCAEE (disulfide 4-15 (inferred)) [AF17121]”: the “Receptor State” value with IL-5Rα ECD [4] (IL-5Rα ECD with equimolar peptide) is reported as “Monomer”. Also, in the assay with IL-5Rα ECD [4] (setting [5]), the “Calculated MW” value is reported as 89.5 kDa and the “Elution Volume” value came out at 1.425. Further, the “effect on elution / apparent size of IL-5Rα ECD” value in the assay with IL-5Rα ECD [4] (gel filtration) was “no effect on the elution of the receptor”. Further, in assay [3], the “basal level of luciferase expression in unstimulated cells” value is “reduced basal level of luciferase expression” and the “luciferase activity of Ba/F3 cells expressing the chimera” value is reported as “no effect”. In addition, in the assay with IL-5RαECD, the “association of fluorescently labeled IL-5Rα ECD to IL-5RαECD-coated beads” value is given as “did not mediate the association of labeled receptor with the beads”.

By IC50 is commonly meant the concentration at which inhibition is half-maximal. Usually Kd stands for the concentration at which binding is half-saturated.

The record behind these values is patent US7109299B1, “Peptides and compounds that bind to the IL-5 receptor” (Affymax, Inc., priority 1999, dated 2006).
